This note sets out measurements from US20100129315A1.

The target in this experiment is human MN protein, entire extra-cellular domain with a C-terminal histag, expressed in HKB-11 cells (human), Q16790. The experiment is described as follows: SPR (BIAcore 3000), IgG captured on anti-human IgG Fc, soluble MN as analyte, 1:1 Langmuir fit. As to conditions: remark: other sources report otherwise. A general note: In SPR one partner is held on a chip, and binding of the other changes the refractive index at the surface.

B1: 3a4 full-length human IgG1 antibody (antibody)
chain 1: QVELVESGGGLVQPGGSLRLSCAASGFTFSDYSINWVRQAPGKGLEYVSNISYSGSSTYYADSVKGRFTISRDNSKNTLYLQMNSLRAEDTAVYYCARFKYSGGSDSWGQGTLVTVSS
chain 2: DIELTQPPSVSVAPGQTARISCSGDNLPDFYVHWYQQKPGQAPVLVISEDNKRPSGIPERFSGSNSGNTATLTISGTQAEDEADYYCSTYGYTYSYSVFGGGTKLTVL
Take B1: the Kd (in general, the free concentration of one partner at which half of the binding sites on the other are occupied at equilibrium, for simple one-to-one binding) came to 1 nM.
